The record followed here is patent US10189877.

The target of this assay is DSV^4 VLPs (Dengue virus serotypes 1-4; Hepatitis B virus; Hepatitis B virus). In words: sandwich ELISA: mAb coated, DSV^4 VLPs added, detected with peroxidase labelled anti-HBsAg.

In turn, 3H5 (antibody) registered an ELISA OD of 0.77 OD. The figure for 4G2 (antibody) is 0.05 OD.
